Reference: patent US20240392004A1 (IMMUNOWAKE, published 2024)
Positions count from the first letter of the chain named. Numbers in names are those of the source.

T1: IFN-γ receptor (IFNGR1 and IFNGR2) (UniProt P15260 18-489; P38484 22-337, limits assumed)
T1 sequence (looked up) 1: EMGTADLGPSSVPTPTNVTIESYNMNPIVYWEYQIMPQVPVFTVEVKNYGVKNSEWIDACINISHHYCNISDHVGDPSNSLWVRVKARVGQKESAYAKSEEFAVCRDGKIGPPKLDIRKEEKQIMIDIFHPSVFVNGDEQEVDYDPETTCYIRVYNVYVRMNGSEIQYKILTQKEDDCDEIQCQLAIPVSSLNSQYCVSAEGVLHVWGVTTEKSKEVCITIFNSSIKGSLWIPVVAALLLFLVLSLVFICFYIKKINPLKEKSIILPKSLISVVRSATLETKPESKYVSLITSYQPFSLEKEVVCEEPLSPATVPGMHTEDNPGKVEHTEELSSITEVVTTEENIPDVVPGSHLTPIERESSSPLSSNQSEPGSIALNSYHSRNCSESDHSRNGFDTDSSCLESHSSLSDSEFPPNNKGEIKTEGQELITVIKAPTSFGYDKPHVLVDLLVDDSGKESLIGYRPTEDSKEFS
T1 sequence (looked up) 2: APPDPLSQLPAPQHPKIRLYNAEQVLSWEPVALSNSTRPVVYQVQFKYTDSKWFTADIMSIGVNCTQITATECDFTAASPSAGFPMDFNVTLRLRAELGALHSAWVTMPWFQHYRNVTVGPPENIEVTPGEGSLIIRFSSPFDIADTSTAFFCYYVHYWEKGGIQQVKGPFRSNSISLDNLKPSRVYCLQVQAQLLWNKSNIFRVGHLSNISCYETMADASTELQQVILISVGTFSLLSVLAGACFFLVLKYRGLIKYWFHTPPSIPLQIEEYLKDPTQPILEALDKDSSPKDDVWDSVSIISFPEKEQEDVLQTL

B1: PD-L1(I54Q/Y56F/E58M/R113T/M115L/S117A/G119K)-Fc/IL-12(E59A/F60A) (IL-12 at C-terminus of Fc) (Fc fusion)
chain 1: FTVTVPKDLYVVEYGSNMTIECKFPVEKQLDLAALQVFWMMEDKNIIQFVHGEEDLKVQHSSYRQRARLLKDQLSLGNAALQITDVKLQDAGVYTCLIAYKGADYKRITVKVNAPYNKINQRILVVDPVTSEHELTCQAEGYPKAEVIWTSSDHQVLSGKTTTTNSKREEKLFNVTSTLRINTTTNEIFYCTFRRLDPEENHTAELVIPELPLAHPPNERGSGDKTHTCPPCPAPEKKGGPSVFLFPPKPKDTLMISRTPEVTCVVVDVSHEDPEVKFNWYVDGVEVHNAKTKPREEQYNSTYRVVSVLTVLHQDWLNGKEYKCKVSNKALPAPIEKTISKAKGQPREPQVYVLPPSREEMTKNQVSLLCLVKGFYPSDIAVEWESNGQPENRYMTWPPVLDSDGSFFLYSKLTVDKSRWQQGNVFSCSVMHEALHNHYTQKSLSLSPGK
chain 2: FTVTVPKDLYVVEYGSNMTIECKFPVEKQLDLAALQVFWMMEDKNIIQFVHGEEDLKVQHSSYRQRARLLKDQLSLGNAALQITDVKLQDAGVYTCLIAYKGADYKRITVKVNAPYNKINQRILVVDPVTSEHELTCQAEGYPKAEVIWTSSDHQVLSGKTTTTNSKREEKLFNVTSTLRINTTTNEIFYCTFRRLDPEENHTAELVIPELPLAHPPNERGSGDKTHTCPPCPAPEDEGGPSVFLFPPKPKDTLMISRTPEVTCVVVDVSHEDPEVKFNWYVDGVEVHNAKTKPREEQYNSTYRVVSVLTVLHQDWLNGKEYKCKVSNKALPAPIEKTISKAKGQPREPQVYVYPPSREEMTKNQVSLTCLVKGFYPSDIAVEWESNGQPENNYKTTPPVLDEDGSFALVSKLTVDKSRWQQGNVFSCSVMHEALHNHYTQKSLSLSPGKGGGGSGGGGSGGGGSIWELKKDVYVVELDWYPDAPGEMVVLTCDTPEEDGITWTLDQSSEVLGSGKTLTIQVKAAGDAGQYTCHKGGEVLSHSLLLLHKKEDGIWSTDILKDQKEPKNKTFLRCEAKNYSGRFTCWWLTTISTDLTFSVKSSRGSSDPQGVTCGAATLSAERVRGDNKEYEYSVECQEDSACPAAEESLPIEVMVDAVHKLKYENYTSSFFIRDIIKPDPPKNLQLKPLKNSRQVEVSWEYPDTWSTPHSYFSLTFCVQVQGKSKREKKDRVFTDKTSATVICRKNASISVRAQDRYYSSSWSEWASVPCSGGGGSGGGGSGGGGSGGGGSGRNLPVATPDPGMFPCLHHSQNLLRAVSNMLQKARQTLEFYPCTSEEIDHEDITKDKTSTVEACLPLELTKNESCLNSRETSFITNGSCLASRKTSFMMALCLSSIYEDLKMYQVEFKTMNAKLLMDPKRQIFLDQNMLAVIDELMQALNFNSETVPQKSSLEEPDFYKTKIKLCILLHAFRIRAVTIDRVMSYLNAS
B2: IL-12(E59A/F60A)/IFN-γ(A23V/A23V)/PD-L1(mut2)-Fc (Fc fusion)
chain 1: FTVTVPKDLYVVEYGSNMTIECKFPVEKQLDLAALQVYWMMEDKNIIQFVHGEEDLKVQHSSYRQRARLLKDQLSLGNAALQITDVKLQDAGVYTCLIAYKGADYKRITVKVNAPYNKINQRILVVDPVTSEHELTCQAEGYPKAEVIWTSSDHQVLSGKTTTTNSKREEKLFNVTSTLRINTTTNEIFYCTFRRLDPEENHTAELVIPELPLAHPPNERGGGGSGGGIWELKKDVYVVELDWYPDAPGEMVVLTCDTPEEDGITWTLDQSSEVLGSGKTLTIQVKAAGDAGQYTCHKGGEVLSHSLLLLHKKEDGIWSTDILKDQKEPKNKTFLRCEAKNYSGRFTCWWLTTISTDLTFSVKSSRGSSDPQGVTCGAATLSAERVRGDNKEYEYSVECQEDSACPAAEESLPIEVMVDAVHKLKYENYTSSFFIRDIIKPDPPKNLQLKPLKNSRQVEVSWEYPDTWSTPHSYFSLTFCVQVQGKSKREKKDRVFTDKTSATVICRKNASISVRAQDRYYSSSWSEWASVPCSGGGGSGGGSGGGGSRNLPVATPDPGMFPCLHHSQNLLRAVSNMLQKARQTLEFYPCTSEEIDHEDITKDKTSTVEACLPLELTKNESCLNSRETSFITNGSCLASRKTSFMMALCLSSIYEDLKMYQVEFKTMNAKLLMDPKRQIFLDQNMLAVIDELMQALNFNSETVPQKSSLEEPDFYKTKIKLCILLHAFRIRAVTIDRVMSYLNASGGGGSGGGDKTHTCPPCPAPEDEGGPSVFLFPPKPKDTLMISRTPEVTCVVVDVSHEDPEVKFNWYVDGVEVHNAKTKPREEQYNSTYRVVSVLTVLHQDWLNGKEYKCKVSNKALPAPIEKTISKAKGQPREPQVYVYPPSREEMTKNQVSLTCLVKGFYPSDIAVEWESNGQPENNYKTTPPVLDEDGSFALVSKLTVDKSRWQQGNVFSCSVMHEALHNHYTQKSLSLSPGK
chain 2: FTVTVPKDLYVVEYGSNMTIECKFPVEKQLDLAALQVYWMMEDKNIIQFVHGEEDLKVQHSSYRQRARLLKDQLSLGNAALQITDVKLQDAGVYTCLIAYKGADYKRITVKVNAPYNKINQRILVVDPVTSEHELTCQAEGYPKAEVIWTSSDHQVLSGKTTTTNSKREEKLFNVTSTLRINTTTNEIFYCTFRRLDPEENHTAELVIPELPLAHPPNERGGGSGQDPYVKEAENLKKYFNAGHSDVVDNGTLFLGILKNWKEESDRKIMQSQIVSFYFKLFKNFKDDQSIQKSVETIKEDMNVKFFNSNKKKRDDFEKLTNYSVTDLNVQRKAIHELIQVMAELSPAAKTGKRKRSQMLFRGGGGSGGGGSGGGGSGGGGSQDPYVKEAENLKKYFNAGHSDVVDNGTLFLGILKNWKEESDRKIMQSQIVSFYFKLFKNFKDDQSIQKSVETIKEDMNVKFFNSNKKKRDDFEKLTNYSVTDLNVQRKAIHELIQVMAELSPAAKTGKRKRSQMLFRGGGGGSGGGDKTHTCPPCPAPEKKGGPSVFLFPPKPKDTLMISRTPEVTCVVVDVSHEDPEVKFNWYVDGVEVHNAKTKPREEQYNSTYRVVSVLTVLHQDWLNGKEYKCKVSNKALPAPIEKTISKAKGQPREPQVYVLPPSREEMTKNQVSLLCLVKGFYPSDIAVEWESNGQPENRYMTWPPVLDSDGSFFLYSKLTVDKSRWQQGNVFSCSVMHEALHNHYTQKSLSLSPGK
B3: IL-12(E59A/F60A)/IFN-γ(A23V/A23V)/PD-L1(mut7)-Fc (Fc fusion)
chain 1: B2 chain 1 with K101G
chain 2: B2 chain 2 with K101G
B4: IL-12(E59A/F60A)/IFN-γ(A23V/A23V)/PD-L2(mut2)-Fc (Fc fusion)
chain 1: LFTVTVPKELYIIEHGSNVTLECNFDTGSHVNLGAITAVLQKVENDTSPHRERATLLEEQLPLGKASFHIPQVQVRDEGQYQCIIIYGVAWDYKYLTLKVKASYRKINTHILKVPETDEVELTCQATGYPLAEVSWPNVSVPANTSHSRTPEGLYQVTSVLRLKPPPGRNFSCVFWNTHVRELTLASIDLQSQMEPRTHPTGGGGSGGGIWELKKDVYVVELDWYPDAPGEMVVLTCDTPEEDGITWTLDQSSEVLGSGKTLTIQVKAAGDAGQYTCHKGGEVLSHSLLLLHKKEDGIWSTDILKDQKEPKNKTFLRCEAKNYSGRFTCWWLTTISTDLTFSVKSSRGSSDPQGVTCGAATLSAERVRGDNKEYEYSVECQEDSACPAAEESLPIEVMVDAVHKLKYENYTSSFFIRDIIKPDPPKNLQLKPLKNSRQVEVSWEYPDTWSTPHSYFSLTFCVQVQGKSKREKKDRVFTDKTSATVICRKNASISVRAQDRYYSSSWSEWASVPCSGGGGSGGGSGGGGSRNLPVATPDPGMFPCLHHSQNLLRAVSNMLQKARQTLEFYPCTSEEIDHEDITKDKTSTVEACLPLELTKNESCLNSRETSFITNGSCLASRKTSFMMALCLSSIYEDLKMYQVEFKTMNAKLLMDPKRQIFLDQNMLAVIDELMQALNFNSETVPQKSSLEEPDFYKTKIKLCILLHAFRIRAVTIDRVMSYLNASGGGGSGGGDKTHTCPPCPAPEDEGGPSVFLFPPKPKDTLMISRTPEVTCVVVDVSHEDPEVKFNWYVDGVEVHNAKTKPREEQYNSTYRVVSVLTVLHQDWLNGKEYKCKVSNKALPAPIEKTISKAKGQPREPQVYVYPPSREEMTKNQVSLTCLVKGFYPSDIAVEWESNGQPENNYKTTPPVLDEDGSFALVSKLTVDKSRWQQGNVFSCSVMHEALHNHYTQKSLSLSPGK
chain 2: LFTVTVPKELYIIEHGSNVTLECNFDTGSHVNLGAITAVLQKVENDTSPHRERATLLEEQLPLGKASFHIPQVQVRDEGQYQCIIIYGVAWDYKYLTLKVKASYRKINTHILKVPETDEVELTCQATGYPLAEVSWPNVSVPANTSHSRTPEGLYQVTSVLRLKPPPGRNFSCVFWNTHVRELTLASIDLQSQMEPRTHPTGGGSGQDPYVKEAENLKKYFNAGHSDVVDNGTLFLGILKNWKEESDRKIMQSQIVSFYFKLFKNFKDDQSIQKSVETIKEDMNVKFFNSNKKKRDDFEKLTNYSVTDLNVQRKAIHELIQVMAELSPAAKTGKRKRSQMLFRGGGGSGGGGSGGGGSGGGGSQDPYVKEAENLKKYFNAGHSDVVDNGTLFLGILKNWKEESDRKIMQSQIVSFYFKLFKNFKDDQSIQKSVETIKEDMNVKFFNSNKKKRDDFEKLTNYSVTDLNVQRKAIHELIQVMAELSPAAKTGKRKRSQMLFRGGGGGSGGGDKTHTCPPCPAPEKKGGPSVFLFPPKPKDTLMISRTPEVTCVVVDVSHEDPEVKFNWYVDGVEVHNAKTKPREEQYNSTYRVVSVLTVLHQDWLNGKEYKCKVSNKALPAPIEKTISKAKGQPREPQVYVLPPSREEMTKNQVSLLCLVKGFYPSDIAVEWESNGQPENRYMTWPPVLDSDGSFFLYSKLTVDKSRWQQGNVFSCSVMHEALHNHYTQKSLSLSPGK
B5: IL-12(E59A/F60A)/IFN-γ(A23V/A23V)/PD-L2(mut4)-Fc (Fc fusion)
chain 1: B4 chain 1 with T37V, Q41L
chain 2: B4 chain 2 with T37V, Q41L

Target: T2, human PD-1 on cells (HEK-PD-1 reporter cells; activated PBMC) (human, UniProt Q15116 25-288)
T2 sequence (Q15116 25-288): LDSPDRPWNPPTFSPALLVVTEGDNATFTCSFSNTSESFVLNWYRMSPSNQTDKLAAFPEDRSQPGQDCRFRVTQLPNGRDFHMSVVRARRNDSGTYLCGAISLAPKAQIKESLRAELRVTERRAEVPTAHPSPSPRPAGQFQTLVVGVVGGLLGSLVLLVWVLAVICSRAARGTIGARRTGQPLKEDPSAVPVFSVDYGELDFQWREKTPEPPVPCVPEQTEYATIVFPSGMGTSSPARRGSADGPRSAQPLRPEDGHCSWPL
Assay: cell-based or functional assay

Binder	Biological activity of IL-12, HEK-PD-1-IL-12 reporter assay, % of rIL-12
B1	189%

Target: T2, human PD-1 on cells (HEK-PD-1 reporter …)
Assay: cell-based or functional assay
Remark: another data set of the same source

Binder	IFN-γ signal transduction, HEK-IFN-γ-PD-1	IL-12 signal transduction, HEK-IL-12-PD-1
B2	39%	32%
B3	45%	43%
B4	35%	45%
B5	40%	49%

Target: human IL-12 receptor complex (IL-12Rβ1 and IL-12Rβ2) (human, UniProt P42701 24-662; Q99665 24-862)
Sequence (Q99665 24-862, chain 2 of 2, other chains not shown): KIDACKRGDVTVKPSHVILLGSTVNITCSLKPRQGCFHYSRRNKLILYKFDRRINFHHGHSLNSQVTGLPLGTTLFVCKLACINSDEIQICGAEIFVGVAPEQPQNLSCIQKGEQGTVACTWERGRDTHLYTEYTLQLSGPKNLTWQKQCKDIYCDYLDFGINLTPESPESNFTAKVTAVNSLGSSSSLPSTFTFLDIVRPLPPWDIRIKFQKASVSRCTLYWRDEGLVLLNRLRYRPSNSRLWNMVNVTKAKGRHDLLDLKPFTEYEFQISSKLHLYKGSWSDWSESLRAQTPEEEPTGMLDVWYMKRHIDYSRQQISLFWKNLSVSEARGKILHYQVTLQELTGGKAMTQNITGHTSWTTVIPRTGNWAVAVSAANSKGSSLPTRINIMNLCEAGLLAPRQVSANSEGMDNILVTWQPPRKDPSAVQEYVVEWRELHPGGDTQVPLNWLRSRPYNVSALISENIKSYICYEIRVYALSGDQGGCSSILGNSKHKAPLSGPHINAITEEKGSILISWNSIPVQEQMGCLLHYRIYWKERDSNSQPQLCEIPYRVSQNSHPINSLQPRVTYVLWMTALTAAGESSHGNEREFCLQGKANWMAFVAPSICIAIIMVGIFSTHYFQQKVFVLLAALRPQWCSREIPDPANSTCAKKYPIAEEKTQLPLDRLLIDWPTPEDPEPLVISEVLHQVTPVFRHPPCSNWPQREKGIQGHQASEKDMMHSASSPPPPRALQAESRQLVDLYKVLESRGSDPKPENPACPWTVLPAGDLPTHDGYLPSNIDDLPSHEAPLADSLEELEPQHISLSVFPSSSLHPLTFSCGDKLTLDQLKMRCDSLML
Assay: cell-based or functional assay

Binder	IL-12 signal transduction, HEK-IL-12
B2	< 0.2%
B3	< 0.2%
B4	< 0.2%
B5	< 0.2%

Target: T1, IFN-γ receptor (IFNGR1 and IFNGR2)
Assay: cell-based or functional assay

Binder	IFN-γ signal transduction, HEK-IFN-γ
B2	< 0.1%
B3	< 0.1%
B4	< 0.1%
B5	< 0.1%
